Assay results from patent US20240360201A1 (BIOCYTOGEN PHARMACEUTICALS BEIJING, published 2024).
Where a chain is given by its changes, count along the chain named. In names and notes the source's numbering stands. Blank lines part the entries; values can stand above or below the binder they belong to.

How the values were obtained:
Assay in all cases: SPR Biacore T200; binder captured on protein A chip, target as analyte
[1] = target: T1, 6×Histidine-tagged human PD-L1 protein (hPDL1-His) (human, UniProt Q9NZQ7 19-238)
T1 construct: also called hPL1-His; His-tagged human PD-L1
Description: (§1) Binding affinities of the fusion proteins against human CTLA4 (hCTLA4-His) or human PD-L1 (hPDL1) were measured by surface plasmon resonance (SPR) using Biacore™ T200 biosensor equipped with pre-immobilized protein A sensor chips. A CTLA4 antibody CT4-4G12-IgG1 (CT4) was used as a control. ATOR1015-CD86 (CD86) and KN035-IgG1 (with D265A mutation in heavy chain constant domain) were also used as controls.

human CD40 (hCD40-his) = human CD40 (hCD40-his) (human, UniProt P25942 21-193)
Description: Binding affinity to human CD40 of the obtained fusion proteins PDL1-C40-6A7-FV3A (IgG1), PDL1-C40-6A7-FV3A-IgG4, PDL1-C40-6A7-FV3C (IgG1), PDL1-C40-6A7-FV3A1 (IgG1), PDL1-C40-6A7-FV3A2 (IgG1), and PDL1-C40-6A7-FV3A3 (IgG1) were determined by surface plasmon resonance (SPR) using Biacore™ T200 biosensor equipped with pre-immobilized protein A sensor chips. The original anti-CD40 monoclonal antibody C40-6A7 IgG2 (6A7, VH SEQ ID NO: 91, VL SEQ ID NO: 92), which the scFV was derived from, was used as a control.

human CTLA4 (hCTLA4-His) = human CTLA4 (hCTLA4-His) (human, UniProt P16410 36-161, limits assumed)
Description: as §1

T1 sequence (Q9NZQ7 19-238 limits assumed): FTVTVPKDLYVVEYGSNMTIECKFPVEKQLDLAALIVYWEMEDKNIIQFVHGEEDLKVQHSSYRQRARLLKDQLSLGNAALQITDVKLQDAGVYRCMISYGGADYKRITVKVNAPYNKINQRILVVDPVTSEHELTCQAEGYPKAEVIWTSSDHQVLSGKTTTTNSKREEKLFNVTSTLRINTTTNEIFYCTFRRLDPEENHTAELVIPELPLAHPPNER
human CTLA4 (hCTLA4-His), sequence (P16410 36-161 limits assumed): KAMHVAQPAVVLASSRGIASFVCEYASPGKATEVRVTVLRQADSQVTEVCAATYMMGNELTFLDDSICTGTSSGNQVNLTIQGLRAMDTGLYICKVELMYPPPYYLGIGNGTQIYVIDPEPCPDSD
human CD40 (hCD40-his), sequence (P25942 21-193 limits assumed): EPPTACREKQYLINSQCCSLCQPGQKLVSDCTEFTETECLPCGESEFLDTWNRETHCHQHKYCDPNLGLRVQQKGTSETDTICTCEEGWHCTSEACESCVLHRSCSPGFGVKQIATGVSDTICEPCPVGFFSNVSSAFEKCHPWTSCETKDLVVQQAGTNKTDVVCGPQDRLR

Kd [1]: 11.5 nM | koff [1]: 0.0204 s⁻¹ | kon [1]: 1.78e+06 M⁻¹ s⁻¹
B1: KN035-IgG1 (D265A) (Fc fusion, not shown: a dimerising Fc or GST)
VHH: QVQLVESGGGLVQPGGSLRLSCAASGFTFSRRCMAWFRQAPGKERERVAKLLTTSGSTYLADSVKGRFTISRDNSKNTVYLQMNSLRAEDTAVYYCAADSFEDPTCTLVTSSGAFQYWGQGTLVTVSS
notes: Control; with D265A mutation in heavy chain constant domain; also called KN035-PDL1

Kd [1]: 14.1 nM | koff [1]: 0.00687 s⁻¹ | kon [1]: 487000 M⁻¹ s⁻¹
B2: PD1-KN035-3A-IgG1 (bispecific antibody)
heavy: EVQLVESGGGLVQPGGSLRLSCAASGFTFSSYSMSWVRQAPGKRLEWVAHISSGGSSTYYPDTVKGRFTISRDNSKNTLYLQMNSLRAEDTAMYYCTRQFYYGSSFWYFDVWGAGTTVTVSSASTKGPSVFPLAPSSKSTSGGTAALGCLVKDYFPEPVTVSWNSGALTSGVHTFPAVLQSSGLYSLSSVVTVPSSSLGTQTYICNVNHKPSNTKVDKKVEPKSCDKTHTCPPCPAPELLGGPSVFLFPPKPKDTLMISRTPEVTCVVVDVSHEDPEVKFNWYVDGVEVHNAKTKPREEQYNSTYRVVSVLTVLHQDWLNGKEYKCKVSNKALPAPIEKTISKAKGQPREPQVYTLPPSREEGGGGSGGGGSQVQLVESGGGLVQPGGSLRLSCAASGFTFSRRCMAWFRQAPGKERERVAKLLTTSGSTYLADSVKGRFTISRDNSKNTVYLQMNSLRAEDTAVYYCAADSFEDPTCTLVTSSGAFQYWGQGTLVTVSSGGGGSGGGGSVSLTCLVKGFYPSDIAVEWESNGQPENNYKTTPPVLDSDGSFFLYSKLTVDKSRWQQGNVFSCSVMHEALHNHYTQKSLSLSPGK
light: DNVLTQSPATLSVSPGERATLSCKASQSVDFDGDSYMNWYQQKPGQPPRLLIYAASNLESGIPARFSGSGSGTDFTLTISSVEPEDFATYYCQQSNEDPPTFGGGTKVEIKRTVAAPSVFIFPPSDEQLKSGTASVVCLLNNFYPREAKVQWKVDNALQSGNSQESVTEQDSKDSTYSLSSTLTLSKADYEKHKVYACEVTHQGLSSPVTKSFNRGEC
notes: IgG1

Kd (human CD40 (hCD40-his)): 1.04 nM | koff (human CD40 (hCD40-his)): 0.000379 s⁻¹ | kon (human CD40 (hCD40-his)): 364000 M⁻¹ s⁻¹
B3: PDL1-C40-6A7-FV3A3 (IgG1) (bispecific antibody)
heavy: EVQLLESGGGLVQPGGSLRLSCAASGFTFSSYIMMWVRQAPGKGLEWVSSIYPSGGITFYADTVKGRFTISRDNSKNTLYLQMNSLRAEDTAVYYCARIKLGTVTTVDYWGQGTLVTVSSASTKGPSVFPLAPSSKSTSGGTAALGCLVKDYFPEPVTVSWNSGALTSGVHTFPAVLQSSGLYSLSSVVTVPSSSLGTQTYICNVNHKPSNTKVDKKVEPKSCDKTHTCPPCPAPELLGGPSVFLFPPKPKDTLMISRTPEVTCVVVDVSHEDPEVKFNWYVDGVEVHNAKTKPREEQYNSTYRVVSVLTVLHQDWLNGKEYKCKVSNKALPAPIEKTISKAKGQPREPQVYTLPPSRDELTKGGGGSGGGGSDVVMTQSPLSLPVTLGQPASISCRSSQSLLHSNGNTYLHWYQQRPGQSPNHLIYQVSNRFSGVPDRFSGSGSGTDFTLKISRVEAEDVGVYFCSQTTHVPWTFGCGTKVEIKGGGGSGGGGSGGGGSGGGGSQVQLVQSGAEVKKPGASVKLSCKASGYTFISYYIYWVKQAPGQCLEWIGGINPRNGGTNFNEKFKSRATLTVDTSISTAYMELSRLRSEDTAVYYCTRHGNGVYWGQGTTLTVSSGGGGSGGGGSNQVSLTCLVKGFYPSDIAVEWESNGQPENNYKTTPPVLDSDGSFFLYSKLTVDKSRWQQGNVFSCSVMHEALHNHYTQKSLSLSPGK
light: QSALTQPASVSGSPGQSITISCTGTSSDVGGYNYVSWYQQHPGKAPKLMIYDVSNRPSGVSNRFSGSKSGNTASLTISGLQAEDEADYYCSSYTSSSTRVFGTGTKVTVLGQPKANPTVTLFPPSSEELQANKATLVCLISDFYPGAVTVAWKADGSPVKAGVETTKPSKQSNNKYAASSYLSLTPEQWKSHRSYSCQVTHEGSTVEKTVAPTECS
notes: IgG1; scFv inserted between EU 360 and 361

Kd (human CD40 (hCD40-his)): 1.09 nM | koff (human CD40 (hCD40-his)): 0.000427 s⁻¹ | kon (human CD40 (hCD40-his)): 391000 M⁻¹ s⁻¹
B4: PDL1-C40-6A7-FV3A (IgG1) (bispecific antibody)
heavy: EVQLLESGGGLVQPGGSLRLSCAASGFTFSSYIMMWVRQAPGKGLEWVSSIYPSGGITFYADTVKGRFTISRDNSKNTLYLQMNSLRAEDTAVYYCARIKLGTVTTVDYWGQGTLVTVSSASTKGPSVFPLAPSSKSTSGGTAALGCLVKDYFPEPVTVSWNSGALTSGVHTFPAVLQSSGLYSLSSVVTVPSSSLGTQTYICNVNHKPSNTKVDKKVEPKSCDKTHTCPPCPAPELLGGPSVFLFPPKPKDTLMISRTPEVTCVVVDVSHEDPEVKFNWYVDGVEVHNAKTKPREEQYNSTYRVVSVLTVLHQDWLNGKEYKCKVSNKALPAPIEKTISKAKGQPREPQVYTLPPSRDEGGGGSGGGGSDVVMTQSPLSLPVTLGQPASISCRSSQSLLHSNGNTYLHWYQQRPGQSPNHLIYQVSNRFSGVPDRFSGSGSGTDFTLKISRVEAEDVGVYFCSQTTHVPWTFGCGTKVEIKGGGGSGGGGSGGGGSGGGGSQVQLVQSGAEVKKPGASVKLSCKASGYTFISYYIYWVKQAPGQCLEWIGGINPRNGGTNFNEKFKSRATLTVDTSISTAYMELSRLRSEDTAVYYCTRHGNGVYWGQGTTLTVSSGGGGSGGGGSVSLTCLVKGFYPSDIAVEWESNGQPENNYKTTPPVLDSDGSFFLYSKLTVDKSRWQQGNVFSCSVMHEALHNHYTQKSLSLSPGK
light: B3 light
notes: IgG1; also called G3

Kd (human CD40 (hCD40-his)): 0.865 nM | koff (human CD40 (hCD40-his)): 0.000472 s⁻¹ | kon (human CD40 (hCD40-his)): 546000 M⁻¹ s⁻¹
B5: PDL1-C40-6A7-FV3C (IgG1) (bispecific antibody)
heavy: EVQLLESGGGLVQPGGSLRLSCAASGFTFSSYIMMWVRQAPGKGLEWVSSIYPSGGITFYADTVKGRFTISRDNSKNTLYLQMNSLRAEDTAVYYCARIKLGTVTTVDYWGQGTLVTVSSASTKGPSVFPLAPSSKSTSGGTAALGCLVKDYFPEPVTVSWNSGALTSGVHTFPAVLQSSGLYSLSSVVTVPSSSLGTQTYICNVNHKPSNTKVDKKVEPKSCDKTHTCPPCPAPELLGGPSVFLFPPKPKDTLMISRTPEVTCVVVDVSHEDPEVKFNWYVDGVEVHNAKTKPREEQYNSTYRVVSVLTVLHQDWLNGKEYKCKVSNKALPAPIEKTISKAKGQPREPQVYTLPPSRDELTKNQVSLTCLVKGFYPSDIAVEWESNGGGGSGGGGSDVVMTQSPLSLPVTLGQPASISCRSSQSLLHSNGNTYLHWYQQRPGQSPNHLIYQVSNRFSGVPDRFSGSGSGTDFTLKISRVEAEDVGVYFCSQTTHVPWTFGCGTKVEIKGGGGSGGGGSGGGGSGGGGSQVQLVQSGAEVKKPGASVKLSCKASGYTFISYYIYWVKQAPGQCLEWIGGINPRNGGTNFNEKFKSRATLTVDTSISTAYMELSRLRSEDTAVYYCTRHGNGVYWGQGTTLTVSSGGGGSGGGGSGQPENNYKTTPPVLDSDGSFFLYSKLTVDKSRWQQGNVFSCSVMHEALHNHYTQKSLSLSPGK
light: B3 light
notes: IgG1; scFv inserted between EU 384 and 385

Kd (human CTLA4 (hCTLA4-His)): 1.02 nM | koff (human CTLA4 (hCTLA4-His)): 0.000297 s⁻¹ | kon (human CTLA4 (hCTLA4-His)): 291000 M⁻¹ s⁻¹
B6: ATOR1015-CD86 (ligand)
chain: APLKIQAYFNETADLPCQFANSQNLSLSELVVFWQDQENLVLNEVYLGKERFDSVDSKYMGRTSFDSDSWTLRLHNLQIKDKGRYQCIIHHKKPTGMINIHQMNSELSVLA
notes: Used as control captured on a protein A chip

Kd [1]: 11.7 nM | koff [1]: 0.00231 s⁻¹ | kon [1]: 197000 M⁻¹ s⁻¹
B7: CT4-KN035-3A-knob-IgG1 (bispecific antibody)
heavy 1: EVQLVESGGGLVQPGGSLRLSCAASGFTFSSYTMSWVRQAPGKGLEWVATISRGGGYTSYPDSVKGRFTISRDNSKNTLYLQMNSLRAEDTAVYYCAREDYGSSYVHWFAYWGQGTLVTVSAASTKGPSVFPLAPSSKSTSGGTAALGCLVKDYFPEPVTVSWNSGALTSGVHTFPAVLQSSGLYSLSSVVTVPSSSLGTQTYICNVNHKPSNTKVDKKVEPKSCDKTHTCPPCPAPELLGGPSVFLFPPKPKDTLMISRTPEVTCVVVDVSHEDPEVKFNWYVDGVEVHNAKTKPREEQYNSTYRVVSVLTVLHQDWLNGKEYKCKVSNKALPAPIEKTISKAKGQPREPQVCTLPPSREEGGGGSGGGGSQVQLVESGGGLVQPGGSLRLSCAASGFTFSRRCMAWFRQAPGKERERVAKLLTTSGSTYLADSVKGRFTISRDNSKNTVYLQMNSLRAEDTAVYYCAADSFEDPTCTLVTSSGAFQYWGQGTLVTVSSGGGGSGGGGSVSLWCLVKGFYPSDIAVEWESNGQPENNYKTTPPVLDSDGSFFLYSKLTVDKSRWQQGNVFSCSVMHEALHNHYTQKSLSLSPGK
heavy 2: not shown
light: DIQMTQSPSFLSASVGDRVTITCRAGENIYSYLAWYQQKPGKAPKLLIYNARTLAEGVPSRFSGSGSGTEFTLTISSLQPEDFATYYCQHHYGSPRTFGGGTKLEIKRTVAAPSVFIFPPSDEQLKSGTASVVCLLNNFYPREAKVQWKVDNALQSGNSQESVTEQDSKDSTYSLSSTLTLSKADYEKHKVYACEVTHQGLSSPVTKSFNRGEC
notes: IgG1 with knobs-in-holes; KN035 on the knob chain only

Kd [1]: 20.4 nM | koff [1]: 0.0019 s⁻¹ | kon [1]: 92700 M⁻¹ s⁻¹
B8: CT4-KN035-3A-hole-IgG1 (bispecific antibody)
heavy 1: B7 heavy 1 with C354Y, E361C, W514S, L516A, Y555V
heavy 2: not shown
light: B7 light
notes: IgG1 with knobs-in-holes; KN035 on the hole chain only; also called CT4-KN035-3A-kole
